The values below come from article PMC3877406, “Characterization of VCAM-1-Binding Peptide-Functionalized Quantum Dots for Molecular Imaging of Inflamed Endothelium” (PLoS ONE, 2013).

The target in this test is T1, recombinant human VCAM-1 (human, UniProt P19320 25-698).
T1 construct: vascular cell adhesion molecule 1 (VCAM-1), human, recombinant; A bought recombinant VCAM-1 is likely the soluble extracellular part, perhaps with a tag or Fc; also called recombinant VCAM-1; vascular cell adhesion molecule 1; source: bought: R&D Systems
T1 sequence (looked up): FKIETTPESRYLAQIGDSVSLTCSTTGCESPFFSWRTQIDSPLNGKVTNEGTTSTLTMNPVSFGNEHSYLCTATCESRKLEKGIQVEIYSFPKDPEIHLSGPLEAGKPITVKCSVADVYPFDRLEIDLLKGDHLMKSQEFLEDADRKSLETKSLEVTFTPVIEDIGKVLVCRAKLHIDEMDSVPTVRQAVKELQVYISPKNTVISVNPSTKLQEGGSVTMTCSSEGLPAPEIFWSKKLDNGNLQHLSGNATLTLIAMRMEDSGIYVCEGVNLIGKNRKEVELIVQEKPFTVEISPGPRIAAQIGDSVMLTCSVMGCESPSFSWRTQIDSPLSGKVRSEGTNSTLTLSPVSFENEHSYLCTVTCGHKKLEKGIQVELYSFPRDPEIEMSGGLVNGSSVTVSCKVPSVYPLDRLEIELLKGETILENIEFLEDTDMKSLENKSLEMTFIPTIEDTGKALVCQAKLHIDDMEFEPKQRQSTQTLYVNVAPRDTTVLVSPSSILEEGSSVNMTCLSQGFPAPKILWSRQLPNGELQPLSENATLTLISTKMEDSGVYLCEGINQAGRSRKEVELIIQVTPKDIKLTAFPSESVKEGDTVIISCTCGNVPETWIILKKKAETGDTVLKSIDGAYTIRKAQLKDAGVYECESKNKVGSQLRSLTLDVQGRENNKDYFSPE
Put plainly: blue-shift of the quantum dot fluorescence peak (spectra by confocal microscope); VQDs mixed with recombinant human VCAM-1 in tube in 10:1 and 1:1 molar ratios, 5 hours at room temperature; a drop dried on a slide; excitation 405 nm; blue-shift seen at 1:1, not at 10:1. Particulars: both partners purified.

Side chains are listed from the residue outwards. Ends that are not written are not given here. amino‑PEG‑coated CdSeTe/ZnS quantum dot = amino-PEG-coated CdSeTe/ZnS quantum dot; sulfo‑SMCC = sulfosuccinimidyl-4-(N-maleimidomethyl)cyclohexane-1-carboxylate

B1: VCAM-1 binding peptide functionalized QDs (VQDs) (peptide)
peptide: VHPKQHRGGSKGC([sulfo‑SMCC-amino‑PEG‑coated CdSeTe/ZnS quantum dot])
notes: source: synthetic peptide (Innovagen, Sweden), conjugated to Qdot 705 ITK Amino (PEG) Quantum Dots (Invitrogen) with sulfo-SMCC
As for B1, the binding result is recorded as “binds”.
